# B1: 38E2 Fab (Fab, V domains shown)
# VH: QVQLQQSGAELVRPGTSVKMSCKAAGYTFTNYWIGWVKQRPGHGLEWIGDIYPGSGDTNYNGKFKGKATLAADISSNAAYMQLSSLTSEDSAIYYCARSYYRNDAASFAYWGQGTLVTVSA
# VL: DIVMTQSHKFMSTSVGDRVNITCKASQDVDTAVAWYQQKPSQSPKLLIYWTSTRHTGVPDRFTGSGSGTDFTLTISNVQSEDLADYFCQQFSSYPLTFGAGTKLELK
# notes: Murine BCMA Fab, Ni-NTA purified
# B2: 15G9 Fab (Fab, V domains shown)
# VH: QVQLQQSGPELVKPGASVNLSCKASGYTFTNYVIHWVKQKPGQGLEWIGYTIPYTDVTKYNEKFKAKATLTSDKSSSTAFMELSSLTSEDSAVYYCARYDFDGYFDYWGQGTTLTVSS
# VL: DIVMTQAAFSNPVTLGTSASISCRSSKSLLHSNGITYLYWYLQKPGQSPQLLIYQMSNLASGVPDRFSSSGSGTDFTLRISRVEAEDVGVYYCAQNLELPWTFGGGTKLELK
# notes: as for B1
# B3: 29A11 Fab (Fab, V domains shown)
# VH: EIQLVQSGPELKKPGETVKISCKASGYIFTNFGMNWVRQAPGKALKWMGWINTYTGEQIYADDFKGRFAFSLETSASTAYLQINNLKNEDTATYFCARGEIYYGYDVGFVYWGQGTLVTVSA
# VL: DIVLTQSPASLAVSLGQRATISCRASKSVSTSGYSYMHWYQQKPGQPPKLLIYLASNLESGVPARFSGSGSGTDFTLNIHPVEEEDAATYYCQHSRELPWTFGGGTKLEIK
# notes: as for B1
# B4: 38F9 Fab (Fab, V domains shown)
# VH: EIQLVQSGPELKKPGETVKISCKASGYIFTNFGMNWVRQAPGKALKWMGWINTYTGEQIYADDFKGRFAFSLETSASTAYLQINNLKNEDTATYFCARGEIYYGYDVGFVYWGQGTLVTVSA
# VL: NIVLTQSPASLAVSLGQRATISCRASESVDSSGNSFMHWYQQKPGQPPKLLIYLESNLESGVPARFSGSGSRTDFTLTIEPVEADDAATYYCQQSNEDPWTFGGGTKLEIK
# notes: as for B1
# B5: 6G5 Fab (Fab, V domains shown)
# VH: EIQLVQSGPELKKPGETVKISCKASGYIFTNFGMNWVRQAPGKALKWMGWINTYTGEQIYADDFKGRFAFSLETSASTAYLQINNLKNEDTATYFCARGEIYYGYDVGFVYWGQGTLVTVSA
# VL: DIVLTQSPASLAISLGQRATISCRASKSVTTSGYSYIHWYQQKPGQPPKLLIYLASDLEAGVPARFSGSGSGTDFTLNIHPVEEEDAATYYCQHSRELPWTFGGGTKLELK
# notes: as for B1
# B6: 38D9 Fab (Fab, V domains shown)
# VH: EVQLQQSGPELKKPGETVKISCKASGYIFTNFGMNWVRQAPGKALKWMGWINTYTGEQIYADDFKGRFAFSLETSASTAYLQINNLKNEDTATYFCARGEIYYGYDVGFVYWGQGTLVTVSA
# VL: DIVLTQSPASLTVSLGQRATISCGASKSVSTSGYSYMHWYQQKPGQPPKLLIYLGSDLESGVPARFSGSGSGTDFTLNIHPVEEEDAATYYCQHSRELPWTFGGGTKLEIK
# notes: as for B1
# B7: 3G11 Fab (Fab, V domains shown)
# VH: EIQLVQSGPELKKPGETVKISCKASGYIFTNFGMNWVRQAPGKALKWMGWINTYTGEQIYADDFKGRFAFSLETSASTAYLQINNLKNEDTATYFCARGEIYYGYDVGFVYWGQGTLVTVSA
# VL: DIVLTQSPASLTVSLGQRATISCRASKSVSTSGYSYMHWYQQKPGQPPKLLIYLASDLESGVSARFSGSGSGTDFTLNIHPVEEEDAATYYCQHSRELPWTFGGGTKLEIK
# notes: Murine BCMA Fab from phage library, expressed in TG1 periplasm, purified by Ni-NTA
# B8: 15H10 Fab (Fab, V domains shown)
# VH: EVQLQQSGPELKKPGETVKISCKASGYTFTNFGMNWVRQTPGKALKWMGWINTYTGDLIYGDDFKGRFAFSLETSASTAYLQINNLKNEDTATYFCARGEIYYGYDVGFAYWGQGTLVTVSA
# VL: DIVLTQSPASLAVSLGQRATISCRASKSVSTSGYSYMHWYQQKPGQPPKLLIYLASNLESGVPARFSGSGSGTDFTLNIHPVEEEDAATYYCQHSRELPWTFGGGTKLEIK
# notes: as for B1
# B9: 23F8 Fab (Fab, V domains shown)
# VH: EIQLVQSGPELKKPGETVKISCTASGYTFTNFGMNWVRQAPGKALRWMGWINTYTGDQIYADDFKGRFAFSLETSASTAYLQINNLKNEDTATYFCARGEIYYGYDVGFVYWGQGTLVTVSA
# VL: DIVLTQSPASLAVSLGQRATISCRASKSVSTSGYSYMHWYQQKPGQPPKLLIYLASNLESGVPARFSGSGSGTDFTLNIHPVEEEDAATYYCQHSRELPWTFGGGTKLEIK
# notes: as for B1
# B10: 16B9 Fab (Fab, V domains shown)
# VH: EIQLVQSGPELKKPGETVKISCKASGYIFTNFGMNWVRQTPGKALKWMGWINTYTGETIYADDFKGLFAFSLEVPASTAYLQINNLKNEDTATYFCARGEIYYGFDVGFAYWGQGTLVTVSA
# VL: DIVLTQSPASLTVSLGQRATISCRASKSVSTSGYSYIHWYQQKPGQPPKLLIYLASDLESGVPARFSGSGSGTDFTLNIHPVEEEDAATYYCQHSRELPWTFGGGTKLELK
# notes: as for B1
# B11: 40C6 Fab (Fab, V domains shown)
# VH: EIQLVQSGPELKKPGETVKISCKASGYIFTNFGMNWVRQAPGKALKWMGWINTYTGEQIYADDFKGRFAFSLETSASTAYLQINNLKNEDTATYFCARGEIYYGYDVGFVYWGQGTLVTVSA
# VL: DIVLTQSPASLAISLGQRATISCRASRSVTTSGYSYIHWYQQKPGQPPKLLIYLASDLEAGVPARFSGSGSGTDFTLNIHPVEEEDAATYYCQHSRELPWTFGGGTKLEIK
# notes: as for B1
# B12: 34G2 Fab (Fab, V domains shown)
# VH: EVQLQQSGPELRKPGETVKISCKASGYTFTNYGMNWVKQTPGKGLKWMGWINTYTGERIYADDFKGRFAFSLETSASTAYLQINNLKNEDTATYFCARGEIYYGYDVGFVYWGQGTLVTVSA
# VL: DIVLTQSPASLVVSLGQRATISCRASKSVSTSGYSYMHWYQQKPGQPPKLLIYLASNLESGVPARFSGSGSGTDFTLNIHPVEEEDAATYYCQHSRELPWTFGGGTRLEIK
# notes: as for B1
# B13: 23G9 Fab (Fab, V domains shown)
# VH: EVQLQQSGTVLTRPGASVKLSCKASGYSFSSYWMHWLKQRPGQGLEWIGAIYPGNSRTTYNQKFKGEAKLTADTSASTAYMDLSSLTNADSAVYFCTREETYWGQGTLVTVSA
# VL: DVVMTQTPLSLSVTIGQPASISCKSSQGLLDSYGVTYLNWLFQRPGQPPKRLIYLVSELDSGVPDRFTGSGSGTDFTLRISRVEAEDLGIYYCWQGSHFPLTFGAGTKLELK
# notes: as for B1
# Target: T1, human BCMA-hFc kih monovalent recombinant protein (human, UniProt P0DOX5 223-449 = IgG part)
# T1 construct: Knob-into-hole heterodimer with one BCMA arm, expressed in HEK293E; also called human BCMA-hFc recombinant protein
# Assay: SPR (Biacore T200), BCMA-hFc captured on Protein A chip, Fab as analyte, 1:1 Langmuir
# From the text: Kinetic constants were fitted using Biacore T200 evaluation software with a Langmuir 1:1 kinetics model.
Binder,Kd [nM],koff [s⁻¹],kon [M⁻¹ s⁻¹]
B1,8.1,0.000798,98800
B2,12.2,0.0126,1.03e+06
B3,3.2,0.000243,76400
B4,344,0.002,5810
B5,2.1,6.13e-05,29400
B6,5.6,0.000329,59100
B7,13,0.000432,33300
B8,18.3,0.00069,37800
B9,5.6,0.000322,57700
B10,4.1,0.000476,117000
B11,6.4,0.000271,42100
B12,5,0.000705,142000
B13,76.9,0.000313,4070

# Source: patent publication US20250277045A1 (KEYMED BIOSCIENCES, published 2025)
